These results are taken from article PMC4474691, “Leukemia-Associated Mutations in Nucleophosmin Alter Recognition by CRM1: Molecular Basis of Aberrant Transport” (PLoS ONE, 2015).

The assay concerns the target T1, wild type nucleophosmin (NPM) (human, UniProt P06748 1-294).
T1 construct: human nucleophosmin, full length, wild type, pentameric; also called NPM1; B23; source: E. coli BL21 (DE3), purified (Ni-NTA, TEV, second Ni-NTA, Superdex 200); not shown: (His)10-ZZ, N-terminal, cleaved
Briefly: ITC; importin α, importin Δα or importin α/β at 45–60 μM titrated onto NPM (1–1.2 μM pentamer); 50 mM Tris/HCl pH 7.5, 100 mM NaCl, 2 mM TCEP, 10% glycerol; identical, independent binding sites model; n counts importins for each NPM pentamer. The settings on record: both partners purified. In general terms: Isothermal titration calorimetry measures the heat released or taken up as one component is titrated into another.

T1 sequence (P06748 whole entry): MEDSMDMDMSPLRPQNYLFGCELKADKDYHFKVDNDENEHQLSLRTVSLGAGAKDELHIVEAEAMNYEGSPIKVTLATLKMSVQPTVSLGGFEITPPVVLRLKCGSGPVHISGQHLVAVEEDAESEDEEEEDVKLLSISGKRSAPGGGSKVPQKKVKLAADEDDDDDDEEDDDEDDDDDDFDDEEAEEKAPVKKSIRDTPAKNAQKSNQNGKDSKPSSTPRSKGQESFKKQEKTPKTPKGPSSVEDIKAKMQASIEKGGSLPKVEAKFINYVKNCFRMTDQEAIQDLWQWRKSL

B1: importin Δα (importin α lacking the importin β binding (IBB) motif) (domain or fragment)
chain: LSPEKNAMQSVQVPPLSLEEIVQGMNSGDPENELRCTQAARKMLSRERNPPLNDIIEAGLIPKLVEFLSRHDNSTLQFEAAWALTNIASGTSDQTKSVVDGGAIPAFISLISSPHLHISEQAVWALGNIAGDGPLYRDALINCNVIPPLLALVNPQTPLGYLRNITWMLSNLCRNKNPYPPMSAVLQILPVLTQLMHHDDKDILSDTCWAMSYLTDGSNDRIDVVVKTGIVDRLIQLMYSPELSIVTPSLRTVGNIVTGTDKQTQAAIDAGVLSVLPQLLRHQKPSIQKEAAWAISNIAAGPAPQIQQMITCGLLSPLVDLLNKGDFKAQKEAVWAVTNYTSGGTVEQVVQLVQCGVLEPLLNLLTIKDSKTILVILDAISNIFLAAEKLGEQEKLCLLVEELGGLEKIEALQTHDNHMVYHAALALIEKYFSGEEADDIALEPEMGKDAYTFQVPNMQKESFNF
What is called Kd is the free concentration of one partner at which half of the binding sites on the other are occupied at equilibrium, for simple one-to-one binding. A low value points to a tighter complex. As a reminder, the stoichiometry N is a count of units in the complex or per binding partner. For B1, the Kd is 295 ± 20 nM, the dH was -14.3 ± 3.5 kcal/mol and the “stoichiometry N” value was 4.9 ± 0.2.

B2: importin α (receptor)
chain: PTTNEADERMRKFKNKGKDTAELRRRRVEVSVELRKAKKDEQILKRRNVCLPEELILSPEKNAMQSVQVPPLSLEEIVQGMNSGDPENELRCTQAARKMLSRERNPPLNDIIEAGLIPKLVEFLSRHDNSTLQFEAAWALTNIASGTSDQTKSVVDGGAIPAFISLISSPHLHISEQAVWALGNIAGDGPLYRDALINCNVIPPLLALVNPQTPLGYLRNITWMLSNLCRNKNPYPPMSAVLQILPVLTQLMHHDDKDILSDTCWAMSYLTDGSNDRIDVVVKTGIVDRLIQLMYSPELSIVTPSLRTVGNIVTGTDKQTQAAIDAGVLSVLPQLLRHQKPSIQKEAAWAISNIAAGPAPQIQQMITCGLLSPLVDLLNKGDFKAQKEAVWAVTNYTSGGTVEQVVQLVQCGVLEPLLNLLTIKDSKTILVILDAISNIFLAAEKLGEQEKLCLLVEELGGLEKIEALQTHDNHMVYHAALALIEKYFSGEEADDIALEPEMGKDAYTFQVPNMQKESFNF
Regarding B2, the Kd was found to be 703 ± 347 nM, the dH is -10.9 ± 4 kcal/mol and the “stoichiometry N” value was determined as 5 ± 0.2.
